Test results: article PMC9719943, “Expression and structural analysis of human neuroligin 2 and neuroligin 3 implicated in autism spectrum disorders” (Frontiers in Endocrinology, 2022)

Target: the molecule itself
Assay: cryo-EM structure; purified NLGNs at 0.25 mg/ml on holey carbon grids; protein in 25 mM HEPES pH 7.5, 150 mM NaCl; homodimer, C2 symmetry

| Protein | stoichiometry N |
| --- | --- |
| extracellular domain of human NLGN2 (domain or fragment, UniProt Q8NFZ4 15-677, looked up, neuroligin 2 (NLGN2), human, extracellular domain; Subcloned into the secretory vector pSecTAG2B; also called neuroligin 2; NLGN2 ectodomain; source: Expi293F (HEK293F) cells, transiently transfected, purified (nickel resin, Superose 6 SEC)) QRGGGGPGGGAPGGPGLGLGSLGEERFPVVNTAYGRVRGVRRELNNEILGPVVQFLGVPYATPPLGARRFQPPEAPASWPGVRNATTLPPACPQNLHGALPAIMLPVWFTDNLEAAATYVQNQSEDCLYLNLYVPTEDGPLTKKRDEATLNPPDTDIRDPGKKPVMLFLHGGSYMEGTGNMFDGSVLAAYGNVIVATLNYRLGVLGFLSTGDQAAKGNYGLLDQIQALRWLSENIAHFGGDPERITIFGSGAGASCVNLLILSHHSEGLFQKAIAQSGTAISSWSVNYQPLKYTRLLAAKVGCDREDSAEAVECLRRKPSRELVDQDVQPARYHIAFGPVVDGDVVPDDPEILMQQGEFLNYDMLIGVNQGEGLKFVEDSAESEDGVSASAFDFTVSNFVDNLYGYPEGKDVLRETIKFMYTDWADRDNGEMRRKTLLALFTDHQWVAPAVATAKLHADYQSPVYFYTFYHHCQAEGRPEWADAAHGDELPYVFGVPMVGATDLFPCNFSKNDVMLSAVVMTYWTNFAKTGDPNQPVPQDTKFIHTKPNRFEEVVWSKFNSKEKQYLHIGLKPRVRDNYRANKVAFWLELVPHLHNLHTELFTTTTRLPPYATRWPPRPPAGAPGTRRPPPPATLPPEPEPEPGPRAYDRFPGDSRDYSTELS | 2 |
| full-length human NLGN3 (natural protein, UniProt Q9NZ94 38-848, looked up, neuroligin 3 (NLGN3), human, full-length gene in pCDNA3.1; UniProt ID Q9NZ94 printed for NLGN3; also called neuroligin 3) QAPAPTVNTHFGKLRGARVPLPSEILGPVDQYLGVPYAAPPIGEKRFLPPEPPPSWSGIRNATHFPPVCPQNIHTAVPEVMLPVWFTANLDIVATYIQEPNEDCLYLNVYVPTEDVKRISKECARKPNKKICRKGGSGAKKQGEDLADNDGDEDEDIRDSGAKPVMVYIHGGSYMEGTGNMIDGSILASYGNVIVITLNYRVGVLGFLSTGDQAAKGNYGLLDQIQALRWVSENIAFFGGDPRRITVFGSGIGASCVSLLTLSHHSEGLFQRAIIQSGSALSSWAVNYQPVKYTSLLADKVGCNVLDTVDMVDCLRQKSAKELVEQDIQPARYHVAFGPVIDGDVIPDDPEILMEQGEFLNYDIMLGVNQGEGLKFVEGVVDPEDGVSGTDFDYSVSNFVDNLYGYPEGKDTLRETIKFMYTDWADRDNPETRRKTLVALFTDHQWVEPSVVTADLHARYGSPTYFYAFYHHCQSLMKPAWSDAAHGDEVPYVFGVPMVGPTDLFPCNFSKNDVMLSAVVMTYWTNFAKTGDPNKPVPQDTKFIHTKANRFEEVAWSKYNPRDQLYLHIGLKPRVRDHYRATKVAFWKHLVPHLYNLHDMFHYTSTTTKVPPPDTTHSSHITRRPNGKTWSTKRPAISPAYSNENAQGSWNGDQDAGPLLVENPRDYSTELSVTIAVGASLLFLNVLAFAALYYRKDKRRQEPLRQPSPQRGAGAPELGAAPEEELAALQLGPTHHECEAGPPHDTLRLTALPDYTLTLRRSPDDIPLMTPNTITMIPNSLVGLQTLHPYNTFAAGFNSTGLPHSHSTTRV | 2 |
